In the supplement of paper PMC9170038:

Test system: MS2 coat protein
Experiment: apparent KD of MS2 coat protein; designed switch direction (-1 OFF switch, 1 ON switch): 1; higher = weaker reporter binding
Method in brief: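 Designed RNA switches were transcribed on Illumina chips by stalled E. coli RNA polymerase and titrated with SNAP-549-labelled MS2 coat protein from 0.7 or 1.5 nM, doubling to 3 µM. Step length ran from 0.8–1.5 h at the lowest concentration to 10–20 min at the highest. The apparent KD is the median over clusters for each design, from curve-fitted normalised cluster fluorescence.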

[1] = Eterna round: R95, input ligand: FMN 200 uM
[2] = Eterna round: R95, input ligand: microRNA oligo, concentration not stated
[3] = Eterna round: R95, input ligand: none
[4] = input ligand: microRNA oligo, concentration not stated

Sequence: UCUUGGUUUUUGCUCGUUUUUUGUGUUGAACAUGAGGAUCACCCAUGUAUUGUACGGUCCGAUUUAGUAGUGGUCCG [JMF 18] (puzzle: Sensor for hsa-mir-208a)
- apparent KD of MS2 coat protein [1]: 26 nM
- apparent KD of MS2 coat protein [2]: 14.5 nM
- apparent KD of MS2 coat protein [3]: 26.9 nM

Sequence: ACAGAGGGAAGACAGGAUAUUCGCGAUGGCACAUGAGGAUCACCCAUGUUUUGAGCACAUAAACAGAAGAAGGGUUAAAACUCAG [Veceanve] (puzzle: Same State 2)
- apparent KD of MS2 coat protein [1]: 21.4 nM
- apparent KD of MS2 coat protein [2]: 132 nM
- apparent KD of MS2 coat protein [3]: 215 nM

Sequence: AAAAGACAUGAGGAUCACCCAUGUAAAAACAUAGGAGGAUAUGUCAUGAAAAAAGACUUGACAGAAGGCCUUUGUC [SS1 - 49] (Eterna round: R96, puzzle: Same State 1)
- apparent KD of MS2 coat protein [4]: 156 nM

Sequence: ACAAGCUUUUCUGCAUCGAAAGGUUGAUAACAUGAGGAUCACCCAUGUAAAUAUGAAAACGAUGCUCCUCGUCUUAU [JR_SHM208A_Sub095] (puzzle: Sensor for hsa-mir-208a)
- apparent KD of MS2 coat protein [1]: 37.3 nM
- apparent KD of MS2 coat protein [2]: 15.1 nM
- apparent KD of MS2 coat protein [3]: 44.7 nM

Sequence: AGCGAGAUAGGCAAGGAUAUGCUGGGUUUCACAUGAGGAUCACCCAUGUCAUUGGUUAUGUCCGAGCAGAAGGUGCAUUCUCUUU [ak bound state multiloop solution 2] (puzzle: Same State 2)
- apparent KD of MS2 coat protein [2]: 250 nM

Sequence: UGCCUGAGUCGAGGAUAUUAUGGAUCAAUUAAUACAUGAGGAUCACCCAUGUAAUUAAUUUAACAUGAGAAGGCGACUCAGGCA [SSNG2/10-A2] (Eterna round: R96, puzzle: Same State NG 2)
- apparent KD of MS2 coat protein (input ligand: FMN 200 uM): 7.88 nM
- apparent KD of MS2 coat protein [4]: 4.69 nM
- apparent KD of MS2 coat protein (input ligand: none): 8.81 nM

Sequence: CUGAGCAAUCGAGGAUAUCACGUCGAAUAGACGUGAGAAGGCGAUCAUAACAUGAGGAUCACCCAUGUAUUACAUGAAGCUCAG [SSNG1/4-A1] (Eterna round: R96, puzzle: Same State NG 1)
- apparent KD of MS2 coat protein (input ligand: FMN 200 uM): 11.7 nM
- apparent KD of MS2 coat protein [4]: 12.8 nM
- apparent KD of MS2 coat protein (input ligand: none): 16.2 nM

Sequence: AAAGACAUGAGGAUCACCCAUGUACAGACAAACCAGUCUGCACAGGAUAUCCCGAGGAUAACUCGGGAGAAGGGUGGCCAAAAC [Onveenes] (Eterna round: R96, puzzle: Same State NG 3)
- apparent KD of MS2 coat protein (input ligand: FMN 200 uM): 74.8 nM
- apparent KD of MS2 coat protein [4]: 18.9 nM
- apparent KD of MS2 coat protein (input ligand: none): 33.5 nM

Sequence: UGAACCUUCACAGGAUAUCAUGCGAAAAUUGCGUGAGAAGGGUGAAUAUGGUGUUCAUAGUUGCACAUGAGGAUCACCCAUGUA [SameState NG1 #53] (Eterna round: R96, puzzle: Same State NG 1)
- apparent KD of MS2 coat protein [4]: 92.3 nM

Sequence: AGCUAUUACGAAGGAUAUUCUGACAUGAGGAUCACCCAUGUCUUCAUGAUUUAUUGUGAUCACAUGAAGAAGGUCGUACUAACA [SameState NG2 #24] (Eterna round: R96, puzzle: Same State NG 2)
- apparent KD of MS2 coat protein [4]: 140 nM

Sequence: AGUCCAGCCUGAGCUGGACAAAAGCAUGUACAUGAGGAUCACCCAUGUUCAUGUACAAGCUUUUUGCUCGUUUUAAA [Zipper 52 - 8] (puzzle: Sensor for hsa-mir-208a)
- apparent KD of MS2 coat protein [1]: 523 nM
- apparent KD of MS2 coat protein [2]: 13.5 nM
- apparent KD of MS2 coat protein [3]: 546 nM

Sequence: GGAAACUUGAGAGGAUAUGUAGAGGAUCACCCUACAGAAGGCUCAAAAGAGAGGAUAUGUAGAGGAUCACCCUACAGAAGGCUC [pwkr ssNG DX.11] (Eterna round: R96, puzzle: Same State NG 1)
- apparent KD of MS2 coat protein (input ligand: FMN 200 uM): 24.9 nM
- apparent KD of MS2 coat protein [4]: 23.7 nM
- apparent KD of MS2 coat protein (input ligand: none): 33.1 nM

Sequence: AGGGAGGAGGCUGAGGAUAUCGUAAGGAGGACAUGAGGAUCACCCAUGUGUAUAGGAUUGGAGGACGAGAAGGCAGAGGAGUGGG [JR_SS2_Sub050] (puzzle: Same State 2)
- apparent KD of MS2 coat protein [1]: 41.1 nM
- apparent KD of MS2 coat protein [2]: 26.6 nM
- apparent KD of MS2 coat protein [3]: 28.9 nM

Sequence: AUUAUUUCAUGAGGAUAUGGCACCUUAUUGGUGCCAGAAGGCAUGUCAUUAGACAUGAGGAUCACCCAUGUAUUAUAUUAUAUA [Fiskers NG1ss - 13] (Eterna round: R96, puzzle: Same State NG 1)
- apparent KD of MS2 coat protein (input ligand: FMN 200 uM): 41.5 nM
- apparent KD of MS2 coat protein [4]: 392 nM
- apparent KD of MS2 coat protein (input ligand: none): 534 nM

Sequence: ACAAGACAUGAGGAUCACCCAUGUCCCAAUGACACAGGAUAUCGGUAGGCAUAGCCUACGCGAGAAGGGUGACUUC [Same State 1 - Mod of Vinnie Gere v.1] (puzzle: Same State 1)
- apparent KD of MS2 coat protein [1]: 198 nM
- apparent KD of MS2 coat protein [2]: 68.3 nM
- apparent KD of MS2 coat protein [3]: 73 nM

Sequence: GUGGUCUGACAUGAGGAUCACCCAUGUGGAAUAAAUACGGGUUAGGAUAUCUUGAGGAUCACCCAAGAGAAGGGAUGGAUUGUU (Eterna round: R96, puzzle: Same State NG 3)
- apparent KD of MS2 coat protein (input ligand: FMN 200 uM): 83.9 nM
- apparent KD of MS2 coat protein [4]: 54.7 nM
- apparent KD of MS2 coat protein (input ligand: none): 80.8 nM

Sequence: GAGAAUCUAUCUCAGGAUAUCAUGUCAAAGACAUGAGGAUCACCCAUGUACCAGGAAACUGGUUAUGAGAAGGGAGAUAGAUUCA [Mat - Same State 2 - Mod - D35] (puzzle: Same State 2)
- apparent KD of MS2 coat protein [1]: 103 nM
- apparent KD of MS2 coat protein [2]: 26.2 nM
- apparent KD of MS2 coat protein [3]: 224 nM

Sequence: UGUACAUGAGGAUCACCCAUGUCUAGACAUGUUAAUAUAAUGUAGGAUAUAUAAAAUUUAAAUUAAUAGAAGGACAAUUUUUUU [JMF's solution 2] (Eterna round: R96, puzzle: Same State NG 3)
- apparent KD of MS2 coat protein (input ligand: FMN 200 uM): 113 nM
- apparent KD of MS2 coat protein [4]: 155 nM
- apparent KD of MS2 coat protein (input ligand: none): 212 nM

Sequence: AAAAGAAACGCAGGAUAUGCACAUGAGGAUCACCCAUGUCCCACGGGCUCGACCGAGCCUGUGAAGCAGAAGGGUGUAAGAAAA [Erleusor] (Eterna round: R96, puzzle: Same State NG 2)
- apparent KD of MS2 coat protein (input ligand: FMN 200 uM): 54.1 nM
- apparent KD of MS2 coat protein [4]: 208 nM
- apparent KD of MS2 coat protein (input ligand: none): 74.7 nM

Sequence: CUGAGCAAUCUAGGAUAUCACGUCGUUUAGACGUGAGAAGGAGAUCAUAACAUGAGGAUCACCCAUGUAUUACAUGAAGCUCAG [SSNG1/7-A3] (Eterna round: R96, puzzle: Same State NG 1)
- apparent KD of MS2 coat protein (input ligand: FMN 200 uM): 13.1 nM
- apparent KD of MS2 coat protein [4]: 15.7 nM
- apparent KD of MS2 coat protein (input ligand: none): 18.8 nM

Sequence: AUUAUUAAUGCAGGAUAUGAUUAACAUGAGGAUCACCCAUGUGGUGUUGUGAGUAAGGAGAGUGAUCAGAAGGGCAUUUUUAUU [JMF's solution 13] (Eterna round: R96, puzzle: Same State NG 2)
- apparent KD of MS2 coat protein (input ligand: FMN 200 uM): 1020 nM
- apparent KD of MS2 coat protein [4]: 353 nM
- apparent KD of MS2 coat protein (input ligand: none): 808 nM

Sequence: AAUUAUUGACAUGAGGAUCACCCAUGUAAAGCAUGGAUUAACAAGCUACAAGCUUUUUGCUCGUCUUAUCCUAUAGG [Improved Bojan's design] (puzzle: Sensor for hsa-mir-208a version 2)
- apparent KD of MS2 coat protein [1]: 55.9 nM
- apparent KD of MS2 coat protein [2]: 34.6 nM
- apparent KD of MS2 coat protein [3]: 58.1 nM

Sequence: AGCUAAAACGAAGGAUAUACAAACAUGAGGAUCACCCAUGUAUACAUGAUUUAUUGUGAUCACAUGUAGAAGGUCGUACUAACA [SameState NG2 #19] (Eterna round: R96, puzzle: Same State NG 2)
- apparent KD of MS2 coat protein [4]: 633 nM

Sequence: AUAUUCUUCCGCGACACCCACAUGAGGAUCACCCAUGUUGAACAGGAUAUGUAGUUCAUCUGAACACAGAAGGGUUAAAGGAAG [Eternabot solution 28] (Eterna round: R96, puzzle: Same State NG 3)
- apparent KD of MS2 coat protein (input ligand: FMN 200 uM): 16.5 nM
- apparent KD of MS2 coat protein [4]: 16.5 nM
- apparent KD of MS2 coat protein (input ligand: none): 20 nM

Sequence: GAGUAGUUGGGAGGAUAUGCAUUGUUAUAGAAUGCAGAAGGUUUUAACAUGAGGAUCACCCAUGUAGGACUAUUCCUGUGUAUC [Parity 71 - Jieux - Same State NG 1] (Eterna round: R96, puzzle: Same State NG 1)
- apparent KD of MS2 coat protein (input ligand: FMN 200 uM): 12.9 nM
- apparent KD of MS2 coat protein [4]: 11.9 nM
- apparent KD of MS2 coat protein (input ligand: none): 15.6 nM

Sequence: UAGAAACAUGAGGAUCACCCAUGUGUCAAAGACAUAGGAUAUCACAACUGGCGCCAGUCGUGAGAAGGGUGGUAAA [Usonesat] (puzzle: Same State 1)
- apparent KD of MS2 coat protein [1]: 229 nM
- apparent KD of MS2 coat protein [2]: 53.6 nM
- apparent KD of MS2 coat protein [3]: 84.7 nM

Sequence: ACAUGAGACCAAGGAUAUGUUGUACCUACAUGUGACAUGAGGAUCACCCAUGUGGUAAGUAUGAGACAGAAGGUGGAGAUAUGU [Equivalence 27 - Jieux - Same State NG 2] (Eterna round: R96, puzzle: Same State NG 2)
- apparent KD of MS2 coat protein (input ligand: FMN 200 uM): 16.9 nM
- apparent KD of MS2 coat protein [4]: 44.3 nM
- apparent KD of MS2 coat protein (input ligand: none): 33.2 nM

Sequence: UGUUGUAUUACAGGAUAUCUAUUAGUUGUAUUUAGAGAAGGGUAUUCACAUGAGGAUCACCCAUGUAUAUACGAGGAAGUUGUG [JMF's solution 92] (Eterna round: R96, puzzle: Same State NG 1)
- apparent KD of MS2 coat protein (input ligand: FMN 200 uM): 79.8 nM
- apparent KD of MS2 coat protein [4]: 44.1 nM
- apparent KD of MS2 coat protein (input ligand: none): 59.7 nM

Sequence: AGAUGUUAAUUAGGAUAUGGACACAUGAGGAUCACCCAUGUAACGAAGAUACGAUGUGGUCAAGUCUAGAAGGGAUCGCUAACA [SameState NG2 #74] (Eterna round: R96, puzzle: Same State NG 2)
- apparent KD of MS2 coat protein (input ligand: FMN 200 uM): 38.1 nM
- apparent KD of MS2 coat protein [4]: 26.9 nM
- apparent KD of MS2 coat protein (input ligand: none): 36.6 nM

Sequence: GGUUUAGUCAAGCGCAGUUGCACUUGAAAACAUGAGGAUCACCCAUGUUUGGGACAAGCUUUGCUCCUCGUCUUUCC [Dicebior] (puzzle: Sensor for hsa-mir-208a)
- apparent KD of MS2 coat protein [1]: 194 nM
- apparent KD of MS2 coat protein [2]: 78.2 nM
- apparent KD of MS2 coat protein [3]: 386 nM

Sequence: CGAGGCGUACAUGAGGAUCACCCAUGUACCUAACAACAAAGCAAGGAUAUCCUGGCUAUAAUACAGGAGAAGGUGUGGUCCUUA [Eternabot solution 15] (Eterna round: R96, puzzle: Same State NG 3)
- apparent KD of MS2 coat protein [4]: 107 nM

Sequence: GGCAGGUGCAGGCUUGCUUGCACCUGGAAACAUGAGGAUCACCCAUGUUUGGGACAAGCUUUGCUCCUCGUCUUGUC [JL ViennaUCT Isusreraar mod 2] (puzzle: Sensor for hsa-mir-208a)
- apparent KD of MS2 coat protein [1]: 28.2 nM
- apparent KD of MS2 coat protein [2]: 36.5 nM
- apparent KD of MS2 coat protein [3]: 36.7 nM
